US20180186897A1 (INSTITUTE FOR RESEARCH IN BIOMEDICINE, published 2018)

Target: T1, RIFIN PF3D7_1400600 (Plasmodium falciparum)
T1 construct: also called specific RIFIN
T1 chain: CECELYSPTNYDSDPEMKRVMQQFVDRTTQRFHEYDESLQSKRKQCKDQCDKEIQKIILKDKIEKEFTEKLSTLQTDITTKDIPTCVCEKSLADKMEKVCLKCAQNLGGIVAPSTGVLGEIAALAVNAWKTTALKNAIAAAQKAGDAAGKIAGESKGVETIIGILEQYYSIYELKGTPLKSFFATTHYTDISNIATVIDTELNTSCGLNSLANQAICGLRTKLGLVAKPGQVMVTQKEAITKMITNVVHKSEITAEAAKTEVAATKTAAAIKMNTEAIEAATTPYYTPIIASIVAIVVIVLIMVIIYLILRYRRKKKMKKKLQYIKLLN
Assay: immunoprecipitation with MGD21, LC-MS

B1: MGD21 (antibody, IgG1)
VH: EVQLVETGPGLMKTSGTLSLTCAVSGDYVNTNRRWSWVRQAPGKGLEWIGEVHQSGRTNYNPSLKSRVTISVDKSKNQFSLKVDSVTAADTAVYYCARASPLKSQRDTDLPRPSISAEPGTVIPLGSHVTFVCRGPVGVQTFRLERERNYLYSDTEDVSQTSPSESEARFRIDSVNAGNAGLFRCIYYKSRKWSEQSDYLELVVKGEDVTWALSQSQDDPRACPQGELPISTDIYYVDVWGNGTTVTVSS
VL: AIRMTQSPSSLSASPGDKVSITCRASQHINDSLAWFQQRPGKAPKLLIYGASNLHSGVPSRFSGTGSGTDFTLTITGLQSEDFATYFCQQCNCFPPDFGQGTRLEIK
notes: Human mAb of donor D with LAIR-1 exon+intron insert in CDRH3; also called MGD21 ANTIBODY; mAb MGD21
log2 fold change (enrichment in MGD21 immunoprecipitates of 3D7-MGD21+ against 3D7-MGD21- IEs): > 2 log2 fold change
